Here are results for eight molecules from PMC12043515, “Stepwise neofunctionalization of the NF-κB family member Rel during vertebrate evolution”.

Where a chain is given by its changes, count along the chain named.

The target of data set [1] is T1, Rel RHR homodimer (UniProt P15307 8-297). Briefly: EMSA; EMSA: 10 mM Tris-HCl pH 7.5, 150 mM NaCl, 1 mM DTT, 1 mM EDTA, 5% glycerol, 80 ng/ul dI-dC, 200 ng/ul BSA, 4 C; off-rate with 100-fold unlabeled consensus. SPR: 10 mM HEPES pH 7.5, 150 mM NaCl, 3 mM EDTA, 0.005% Tween 20, 10 C. The following applies: protein: recombinant; chain copies: 2; label: 32P.
T1 sequence (P15307 8-297): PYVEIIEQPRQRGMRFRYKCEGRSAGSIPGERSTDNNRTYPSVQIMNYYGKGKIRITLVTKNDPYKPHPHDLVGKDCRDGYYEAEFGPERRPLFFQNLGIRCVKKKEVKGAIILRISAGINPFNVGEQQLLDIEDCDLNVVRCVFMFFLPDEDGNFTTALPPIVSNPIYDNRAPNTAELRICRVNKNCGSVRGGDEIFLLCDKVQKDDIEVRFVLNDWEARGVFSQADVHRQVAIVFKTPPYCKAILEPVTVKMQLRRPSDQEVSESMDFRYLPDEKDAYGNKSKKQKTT
Data set [2] deals with T1, Rel RHR homodimer. Nature of the data set: SPR; less stable than κB2; EMSA: 10 mM Tris-HCl pH 7.5, 150 mM NaCl, 1 mM DTT, 1 mM EDTA, 5% glycerol, 80 ng/ul dI-dC, 200 ng/ul BSA, 4 C; off-rate with 100-fold unlabeled consensus. SPR: 10 mM HEPES pH 7.5, 150 mM NaCl, 3 mM EDTA, 0.005% Tween 20, 10 C. The following applies: protein: recombinant; chain copies: 2; label: biotin.

The target in data set [3] is T1, Rel RHR homodimer. Briefly: SPR; slower off-rate than on …; EMSA: 10 mM Tris-HCl pH 7.5, 150 mM NaCl, 1 mM DTT, 1 mM EDTA, 5% glycerol, 80 ng/ul dI-dC, 200 ng/ul BSA, 4 C; off-rate with 100-fold unlabeled consensus. SPR: 10 mM HEPES pH 7.5, 150 mM NaCl, 3 mM EDTA, 0.005% Tween 20, 10 C. To be noted: protein: recombinant; chain copies: 2; label: biotin.
Data set [4] concerns the target T1, Rel RHR homodimer. Nature of the data set: SPR; less stable than κB2 and κB1; EMSA: 10 mM Tris-HCl pH 7.5, 150 mM NaCl, 1 mM DTT, 1 mM EDTA, 5% glycerol, 80 ng/ul dI-dC, 200 ng/ul BSA, 4 C; off-rate with 100-fold unlabeled consensus. SPR: 10 mM HEPES pH 7.5, 150 mM NaCl, 3 mM EDTA, 0.005% Tween 20, 10 C. To be noted: protein: recombinant; chain copies: 2; label: biotin.

For data set [5], the target named is RelA RHR homodimer (UniProt Q04207 19-306). Briefly: EMSA; only one dimer bound; EMSA: 10 mM Tris-HCl pH 7.5, 150 mM NaCl, 1 mM DTT, 1 mM EDTA, 5% glycerol, 80 ng/ul dI-dC, 200 ng/ul BSA, 4 C; off-rate with 100-fold unlabeled consensus. SPR: 10 mM HEPES pH 7.5, 150 mM NaCl, 3 mM EDTA, 0.005% Tween 20, 10 C. The following applies: protein: recombinant; chain copies: 2; label: 32P.
RelA RHR homodimer, sequence (Q04207 19-306): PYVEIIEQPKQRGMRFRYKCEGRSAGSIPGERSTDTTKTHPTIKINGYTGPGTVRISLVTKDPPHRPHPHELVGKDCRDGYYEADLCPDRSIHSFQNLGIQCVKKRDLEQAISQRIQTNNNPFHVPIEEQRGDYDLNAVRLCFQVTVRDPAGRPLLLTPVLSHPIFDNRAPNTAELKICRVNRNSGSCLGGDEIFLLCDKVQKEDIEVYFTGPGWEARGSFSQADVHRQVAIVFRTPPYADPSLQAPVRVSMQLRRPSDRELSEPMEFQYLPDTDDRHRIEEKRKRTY

The target in data set [6] is T1, Rel RHR homodimer. Briefly: EMSA; three dimers bound simultaneously; EMSA: 10 mM Tris-HCl pH 7.5, 150 mM NaCl, 1 mM DTT, 1 mM EDTA, 5% glycerol, 80 ng/ul dI-dC, 200 ng/ul BSA, 4 C; off-rate with 100-fold unlabeled consensus. SPR: 10 mM HEPES pH 7.5, 150 mM NaCl, 3 mM EDTA, 0.005% Tween 20, 10 C. The following applies: protein: recombinant; chain copies: 2; label: 32P.

The target in data set [7] is T1, Rel RHR homodimer. Briefly: SPR; most stable of Il12b motifs; EMSA: 10 mM Tris-HCl pH 7.5, 150 mM NaCl, 1 mM DTT, 1 mM EDTA, 5% glycerol, 80 ng/ul dI-dC, 200 ng/ul BSA, 4 C; off-rate with 100-fold unlabeled consensus. SPR: 10 mM HEPES pH 7.5, 150 mM NaCl, 3 mM EDTA, 0.005% Tween 20, 10 C. To be noted: protein: recombinant; chain copies: 2; label: biotin.

B1: κB1 EMSA probe (dsDNA)
DNA 1: CCTAACATCAGGAACTTCTTTGATGTTAGG
DNA 2: CCTAACATCAAAGAAGTTCCTGATGTTAGG
For the molecule B1, the binding result in data set [1] was “binds”.

B2: κB2 EMSA probe (dsDNA)
DNA 1: CCTAACATCAAAAATTCCCCGATGTTAGG
DNA 2: CCTAACATCGGGGAATTTTTGATGTTAGG
As for B2, the binding result in data set [1] was “binds”.

B3: κB1 (SPR) (dsDNA)
DNA 1: B1 DNA 1
DNA 2: B1 DNA 2
With B3, the binding result in data set [2] is given as “binds”.

B4: SPR GGGGGTTTTT (dsDNA)
DNA 1: CCTAACATCAGGGGGTTTTTTGATGTTAGG
DNA 2: CCTAACATCAAAAAACCCCCTGATGTTAGG
Take B4: in data set [3], the binding result is “binds”.

B5: κB3 EMSA probe (dsDNA)
DNA 1: CCTAACATCAAGAATGTTTTTGATGTTAGG
DNA 2: CCTAACATCAAAAACATTCTTGATGTTAGG
For the molecule B5, the binding result in data set [1] is on record as “binds”.

B6: κB3 (SPR) (dsDNA)
DNA 1: B5 DNA 1
DNA 2: B5 DNA 2
As for B6, the binding result in data set [4] is given as “binds”.

B7: κB1+2+3 (dsDNA)
DNA 1: AGGAACTTCTTAAAATTCCCCCAGAATGTTTTGACA
DNA 2: TGTCAAAACATTCTGGGGGAATTTTAAGAAGTTCCT
B7: the binding result in data set [5] and in data set [6] was “binds” throughout.

B8: κB2 (SPR) (dsDNA)
DNA 1: B4 DNA 2 with A15T, C16T
DNA 2: B4 DNA 1 with G15A, T16A
Consider B8, for which the binding result in data set [7] is recorded as “binds”.
